Assays:
Settings in all cases: both partners purified
[1] = molecular target: T1, Pre-made Cu(I)-Ctr1c·Ccs complex (human, UniProt O14618 1-274); assay: other fluorescence titration; HI-FI method, fluorescence quenching; 10 nM Alexa-546 Sod1 probe, completely immature (metal-free); Ccs titrated in increasing concentrations; fit in GraphPad Prism
T1 construct: Human wild-type Ccs1, UniProtKB O14618; as m2; C-terminal 13 amino acids of the human Ctr1 Cu(I)-transporter (Ctr1c), UniProtKB O15431; Held together through Cu(I); also called Cu(I)-Ctr1c complexed Ccs; Cu(I)-Ctr1c488·Ccs; source: formed from purified E. coli Ccs and the Cu(I)-loaded synthetic peptide; not shown: His8, N-terminal, cleaved

[2] = molecular target: T2, Human wild-type copper chaperone for Sod1 (Ccs), His8-tag removed (human, UniProt O14618 1-274); assay: as above
T2 construct: Human wild-type Ccs1, UniProtKB O14618, cloned into pAG8H; Stripped of metals (apo) or Cu(I)-loaded as the experiment says; the methods tell its removal in general; also called Ccs1; WT Ccs; not shown: His8, N-terminal, cleaved
T2 sequence (looked up): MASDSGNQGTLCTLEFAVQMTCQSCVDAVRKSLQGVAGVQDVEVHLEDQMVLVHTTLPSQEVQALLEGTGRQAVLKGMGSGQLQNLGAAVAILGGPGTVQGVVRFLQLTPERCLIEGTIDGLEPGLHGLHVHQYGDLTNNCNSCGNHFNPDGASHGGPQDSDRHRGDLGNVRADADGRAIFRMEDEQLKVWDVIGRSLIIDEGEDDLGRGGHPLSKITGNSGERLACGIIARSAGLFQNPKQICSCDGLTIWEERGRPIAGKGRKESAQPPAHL

[3] = molecular target: T2, Human wild-type copper chaperone for …; assay: other fluorescence titration; HI-FI method, fluorescence quenching; 10 nM Alexa-546 Sod1 probe, Zn-bound; apo-Ccs titrated in increasing concentrations; fit in GraphPad Prism

B1: H46R/H48Q/C146S Sod1 labelled with Alexa-546-C-maleimide (Sod1 probe) (enzyme)
chain: not shown
modifications: Alexa-546-C-maleimide label (residue not stated)
notes: Human Sod1, UniProtKB P00441, H46R/H48Q/C146S; the two states are told apart by the assay; also called completely immature Sod1; source: gel filtration after labelling
Kd [1]: 120 ± 27 nM | Kd [2]: 89 ± 11 nM | Kd [3]: 22 ± 6 nM

From paper PMC6647829, “Copper–zinc superoxide dismutase (Sod1) activation terminates interaction between its copper chaperone (Ccs) and the cytosolic metal-binding domain of the copper importer Ctr1” (Biometals, 2019)
